In publication PMC9606269, “Biased signaling due to oligomerization of the G protein-coupled platelet-activating factor receptor” (Nature Communications, 2022):
Each block holds one molecule with its values, some of them ahead of it.

Experiments:
[1] = molecular target: Halo-PAFR Cys mutant 1.33; test: cysteine cross-linking with CuP, SDS-PAGE blot quantification of cell surface Halo-PAFR; conditions: parent: est. 5, read off a plot
[2] = molecular target: Halo-PAFR Cys mutant 1.35; test: as above; conditions: parent: est. 5, read off a plot
[3] = molecular target: Halo-PAFR Cys mutant 1.38; test: as above; conditions: parent: est. 5, read off a plot
[4] = molecular target: Halo-PAFR Cys mutant 1.39; test: as above; conditions: parent: est. 5, read off a plot
[5] = molecular target: Halo-PAFR Cys mutant 1.41; test: as above; conditions: parent: est. 5, read off a plot
[6] = molecular target: Halo-PAFR Cys mutant 2.59; test: as above; conditions: parent: est. 5, read off a plot
[7] = molecular target: Halo-PAFR Cys mutant 2.63; test: as above; conditions: parent: est. 5, read off a plot
[8] = molecular target: Halo-PAFR Cys mutant 3.23; test: as above; conditions: parent: est. 5, read off a plot
[9] = molecular target: Halo-PAFR Cys mutant 3.27; test: as above; conditions: parent: est. 5, read off a plot
[10] = molecular target: Halo-PAFR Cys mutant 4.47; test: as above; conditions: parent: est. 5, read off a plot
[11] = molecular target: Halo-PAFR Cys mutant 4.48; test: as above; conditions: parent: est. 5, read off a plot
[12] = molecular target: Halo-PAFR Cys mutant 4.51; test: as above; conditions: parent: est. 5, read off a plot
[13] = molecular target: Halo-PAFR Cys mutant 4.53; test: as above; conditions: parent: est. 5, read off a plot
[14] = molecular target: Halo-PAFR Cys mutant 4.54; test: as above; conditions: parent: est. 5, read off a plot
[15] = molecular target: Halo-PAFR Cys mutant 4.56; test: as above; conditions: parent: est. 5, read off a plot
[16] = molecular target: Halo-PAFR Cys mutant 4.57; test: as above; conditions: parent: est. 5, read off a plot
[17] = molecular target: Halo-PAFR Cys mutant 4.58; test: as above; conditions: parent: est. 5, read off a plot
[18] = molecular target: Halo-PAFR Cys mutant 4.60; test: as above; conditions: parent: est. 5, read off a plot
[19] = molecular target: Halo-PAFR Cys mutant 4.61; test: as above; conditions: parent: est. 5, read off a plot
[20] = molecular target: Halo-PAFR Cys mutant 4.64; test: as above; conditions: parent: est. 5, read off a plot
[21] = molecular target: Halo-PAFR Cys mutant 6.49; test: as above; conditions: parent: est. 5, read off a plot
[22] = molecular target: Halo-PAFR Cys mutant 6.51; test: as above; conditions: parent: est. 5, read off a plot
[23] = molecular target: Halo-PAFR Cys mutant 6.53; test: as above; conditions: parent: est. 5, read off a plot
[24] = molecular target: Halo-PAFR Cys mutant 6.54; test: as above; conditions: parent: est. 5, read off a plot
[25] = molecular target: Halo-PAFR Cys mutant 6.56; test: as above; conditions: parent: est. 5, read off a plot
[26] = molecular target: Halo-PAFR Cys mutant 7.33; test: as above; conditions: parent: est. 5, read off a plot
[27] = molecular target: Halo-PAFR Cys mutant 7.35; test: as above; conditions: parent: est. 5, read off a plot
[28] = molecular target: Halo-PAFR Cys mutant 7.37; test: as above; conditions: parent: est. 5, read off a plot
[29] = molecular target: Halo-PAFR Cys mutant 7.38; test: as above; conditions: parent: est. 5, read off a plot
[30] = molecular target: Halo-PAFR Y151C^4.59-I154C^4.62 (human, UniProt P25105 1-342, Y151C^4.59 | I154C^4.62, Halo-tag covalently labelled with HaloTag Alexa Fluor 660 (blots) or HaloTag Alexa Fluor 488 (imaging)); test: cell-based or functional assay
[31] = molecular target: Halo-PAFR E178K (natural genetic variant) (human, UniProt P25105 1-342, E178K, Halo-tag covalently labelled with HaloTag Alexa Fluor 488); test: cell-based or functional assay
Halo-PAFR E178K (natural genetic variant), sequence (P25105 whole entry E178K): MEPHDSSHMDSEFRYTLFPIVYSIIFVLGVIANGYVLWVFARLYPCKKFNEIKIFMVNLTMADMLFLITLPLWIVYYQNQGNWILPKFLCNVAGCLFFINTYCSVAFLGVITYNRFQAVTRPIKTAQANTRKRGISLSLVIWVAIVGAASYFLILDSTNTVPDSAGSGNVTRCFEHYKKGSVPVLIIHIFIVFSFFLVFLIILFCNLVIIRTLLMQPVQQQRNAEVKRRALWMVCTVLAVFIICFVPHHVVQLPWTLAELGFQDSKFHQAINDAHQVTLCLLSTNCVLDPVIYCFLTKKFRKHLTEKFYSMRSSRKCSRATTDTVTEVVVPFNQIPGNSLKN

Halo-PAFR Y151C^4.59-I154C^4.62, sequence (P25105 whole entry Y151C/I154C): as the sequence (P25105 whole entry E178K) above, with Y151C, I154C, K178E counted along it

Molecule: Halo-tagged wild-type human platelet-activating factor receptor (from UniProt P25105) 1.35
- other: change of dimer cross-linking [2]: 18%

Molecule: Halo-tagged wild-type human platelet-activating factor receptor (from UniProt P25105) 1.38
- other: change of dimer cross-linking [3]: 16%

Molecule: Halo-tagged wild-type human platelet-activating factor receptor (from UniProt P25105) 3.27
- other: change of dimer cross-linking [9]: 9%

Molecule: Halo-tagged wild-type human platelet-activating factor receptor (from UniProt P25105) 4.47
- other: change of dimer cross-linking [10]: 13%

Molecule: Halo-tagged wild-type human platelet-activating factor receptor (from UniProt P25105) 4.53
- other: change of dimer cross-linking [13]: 20%

Molecule: Halo-tagged wild-type human platelet-activating factor receptor (from UniProt P25105) 4.54
- other: change of dimer cross-linking [14]: 20%

Molecule: Halo-tagged wild-type human platelet-activating factor receptor (from UniProt P25105) 4.58
- other: change of dimer cross-linking [17]: 22%

Molecule: Halo-tagged wild-type human platelet-activating factor receptor (from UniProt P25105) 4.60
- other: change of dimer cross-linking [18]: 20%

Molecule: Halo-tagged wild-type human platelet-activating factor receptor (from UniProt P25105) 6.53
- other: change of dimer cross-linking [23]: 10%

Molecule: Halo-tagged wild-type human platelet-activating factor receptor (from UniProt P25105) 6.54
- other: change of dimer cross-linking [24]: 8%

Molecule: Halo-tagged wild-type human platelet-activating factor receptor (from UniProt P25105) 6.56
- other: change of dimer cross-linking [25]: 9%

Molecule: Halo-tagged wild-type human platelet-activating factor receptor (from UniProt P25105) 7.33
- other: change of dimer cross-linking [26]: 15%

Molecule: Halo-tagged wild-type human platelet-activating factor receptor (from UniProt P25105) 7.37
- other: change of dimer cross-linking [28]: 19%

Molecule: Halo-tagged wild-type human platelet-activating factor receptor (from UniProt P25105) 7.38
- other: change of dimer cross-linking [29]: 15%

Second part, the molecule after the results:

- other: change of dimer cross-linking [1]: 14%
Molecule: Halo-tagged wild-type human platelet-activating factor receptor (from UniProt P25105) 1.33

- other: change of dimer cross-linking [4]: 13%
Molecule: Halo-tagged wild-type human platelet-activating factor receptor (from UniProt P25105) 1.39

- other: change of dimer cross-linking [5]: 20%
Molecule: Halo-tagged wild-type human platelet-activating factor receptor (from UniProt P25105) 1.41

- other: change of dimer cross-linking [6]: 21%
Molecule: Halo-tagged wild-type human platelet-activating factor receptor (from UniProt P25105) 2.59

- other: change of dimer cross-linking [7]: 14%
Molecule: Halo-tagged wild-type human platelet-activating factor receptor (from UniProt P25105) 2.63

- other: change of dimer cross-linking [8]: 8%
Molecule: Halo-tagged wild-type human platelet-activating factor receptor (from UniProt P25105) 3.23

- other: change of dimer cross-linking [11]: 14%
Molecule: Halo-tagged wild-type human platelet-activating factor receptor (from UniProt P25105) 4.48

- other: change of dimer cross-linking [12]: 19%
Molecule: Halo-tagged wild-type human platelet-activating factor receptor (from UniProt P25105) 4.51

- other: change of dimer cross-linking [15]: 22%
Molecule: Halo-tagged wild-type human platelet-activating factor receptor (from UniProt P25105) 4.56

- other: change of dimer cross-linking [16]: 15%
Molecule: Halo-tagged wild-type human platelet-activating factor receptor (from UniProt P25105) 4.57

- other: change of dimer cross-linking [19]: 18%
Molecule: Halo-tagged wild-type human platelet-activating factor receptor (from UniProt P25105) 4.61

- other: change of dimer cross-linking [20]: 11%
Molecule: Halo-tagged wild-type human platelet-activating factor receptor (from UniProt P25105) 4.64

- other: change of dimer cross-linking [21]: 15%
Molecule: Halo-tagged wild-type human platelet-activating factor receptor (from UniProt P25105) 6.49

- other: change of dimer cross-linking [22]: 6%
Molecule: Halo-tagged wild-type human platelet-activating factor receptor (from UniProt P25105) 6.51

- other: change of dimer cross-linking [27]: 16%
Molecule: Halo-tagged wild-type human platelet-activating factor receptor (from UniProt P25105) 7.35

- maximal efficacy of βarr1 recruitment, normalized to WT [30]: ~60 % of WT
- maximal efficacy of βarr1 recruitment, normalized to WT [31]: ~83 % of WT
B1: Human β-arrestin1 tagged with Rluc (natural protein, UniProt P49407 1-418, looked up)
chain: MGDKGTRVFKKASPNGKLTVYLGKRDFVDHIDLVDPVDGVVLVDPEYLKERRVYVTLTCAFRYGREDLDVLGLTFRKDLFVANVQSFPPAPEDKKPLTRLQERLIKKLGEHAYPFTFEIPPNLPCSVTLQPGPEDTGKACGVDYEVKAFCAENLEEKIHKRNSVRLVIRKVQYAPERPGPQPTAETTRQFLMSDKPLHLEASLDKEIYYHGEPISVNVHVTNNTNKTVKKIKISVRQYADICLFNTAQYKCPVAMEEADDTVAPSSTFCKVYTLTPFLANNREKRGLALDGKLKHEDTNLASSTLLREGANREILGIIVSYKVKVKLVVSRGGLLGDLASSDVAVELPFTLMHPKPKEEPPHREVPENETPVDTNLIELDTNDDDIVFEDFARQRLKGMKDDKEEEEDGTGSPQLNNR
